These are literature values, as cited in PMC4411291.

The series addresses Calmodulin (UniProt P0DP23).

As to “STIM2 C-terminal site (from UniProt Q9P246)”, the Kd is 1000 nM.

For orientation: Kd means a measure of binding affinity in units of concentration.
